Measured values: publication PMC5507214

Columns and labels:
RNaseH1 D210N = biological target: T1, RNaseH1 D210N (Homo sapiens, UniProt O60930 27-286, D210N); assay: EMSA
T1 sequence: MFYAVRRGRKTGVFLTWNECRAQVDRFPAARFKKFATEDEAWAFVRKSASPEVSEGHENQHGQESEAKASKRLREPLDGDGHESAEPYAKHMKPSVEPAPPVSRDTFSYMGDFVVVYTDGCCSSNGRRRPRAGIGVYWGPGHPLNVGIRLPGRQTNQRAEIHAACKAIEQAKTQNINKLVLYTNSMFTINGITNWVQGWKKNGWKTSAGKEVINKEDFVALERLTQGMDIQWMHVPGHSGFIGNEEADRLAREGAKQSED

RNaseH1 D210N;RPA = RNaseH1 D210N;RPA (Homo sapiens;Homo sapiens, UniProt O60930;P27694;P15927;P35244 27-286;1-616;1-270;1-121, D210N|); assay: EMSA
RNaseH1 D210N;RPA, sequence (P27694 whole entry, chain 2 of 3): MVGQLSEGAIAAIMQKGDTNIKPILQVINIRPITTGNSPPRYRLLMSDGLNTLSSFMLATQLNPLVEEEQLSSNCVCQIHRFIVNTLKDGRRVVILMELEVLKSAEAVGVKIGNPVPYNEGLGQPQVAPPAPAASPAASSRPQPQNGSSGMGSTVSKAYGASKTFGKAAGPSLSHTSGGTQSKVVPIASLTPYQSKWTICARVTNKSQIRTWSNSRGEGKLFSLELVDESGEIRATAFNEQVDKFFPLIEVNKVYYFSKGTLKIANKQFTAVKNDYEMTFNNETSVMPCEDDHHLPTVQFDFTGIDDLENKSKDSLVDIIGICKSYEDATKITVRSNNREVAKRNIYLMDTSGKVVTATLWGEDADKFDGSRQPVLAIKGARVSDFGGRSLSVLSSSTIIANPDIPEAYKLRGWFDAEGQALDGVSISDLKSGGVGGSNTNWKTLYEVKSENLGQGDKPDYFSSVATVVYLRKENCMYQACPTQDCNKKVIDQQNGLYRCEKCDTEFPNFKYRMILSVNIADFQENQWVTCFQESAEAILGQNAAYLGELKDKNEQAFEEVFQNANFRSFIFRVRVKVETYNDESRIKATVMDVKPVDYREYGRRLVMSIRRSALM
RNaseH1 D210N;RPA, sequence (P15927 whole entry, chain 3 of 3): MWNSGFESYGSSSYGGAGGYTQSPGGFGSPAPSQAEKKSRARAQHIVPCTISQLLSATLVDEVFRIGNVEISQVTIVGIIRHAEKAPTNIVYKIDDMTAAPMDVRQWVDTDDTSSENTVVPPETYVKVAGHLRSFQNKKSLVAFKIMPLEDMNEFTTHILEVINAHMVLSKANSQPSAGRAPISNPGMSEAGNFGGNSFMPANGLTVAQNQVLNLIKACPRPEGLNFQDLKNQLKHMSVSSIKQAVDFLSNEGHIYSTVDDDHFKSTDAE
RNaseH1 D210N;RPA, sequence (P35244 whole entry, chain 4 of 3): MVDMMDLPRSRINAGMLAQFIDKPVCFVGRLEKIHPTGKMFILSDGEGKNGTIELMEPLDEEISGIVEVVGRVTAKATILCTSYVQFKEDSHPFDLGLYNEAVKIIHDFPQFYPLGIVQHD

B1: R:D (25-bp RNA:DNA hybrid) (DNA:RNA)
RNA: GCAGCUGGCACGACAGGUAUGAAUC
DNA: GATTCATACCTGTCGTGCCAGCTGC
- binding result (RNaseH1 D210N): binds
- binding result (RNaseH1 D210N;RPA): binds
